Results on 5 molecules are retold here after patent publication US20180185504A1 (Regeneron, published 2018).

Assay [1] addresses T1, hPRLR.mmh (soluble monomeric human PRLR) (human).
T1 construct: soluble monomeric PRLR protein
T1 chain: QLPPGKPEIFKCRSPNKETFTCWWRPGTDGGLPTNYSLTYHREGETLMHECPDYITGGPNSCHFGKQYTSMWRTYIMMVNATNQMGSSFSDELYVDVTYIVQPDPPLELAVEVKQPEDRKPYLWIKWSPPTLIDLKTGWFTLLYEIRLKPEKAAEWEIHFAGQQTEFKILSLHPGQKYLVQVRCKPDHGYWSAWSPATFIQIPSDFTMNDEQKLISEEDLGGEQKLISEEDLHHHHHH
Description: SPR (Biacore), antibody capture, 37 C. How it is done:
(§1) Measurements were conducted on a T200 Biacore instrument. Kinetic association (kₐ) and dissociation (kd) rate constants were determined by processing and fitting the data to a 1:1 binding model using Scrubber 2.0 curve fitting software.
On the technique in general: SPR reads the build-up and loss of mass on a sensor chip optically.

For assay [2], the target named is T2, mfPRLR.mmh (soluble monomeric macaca fascicularis PRLR) (macaca fascicularis).
T2 construct: soluble monomeric PRLR protein; also called macaca fascicularis (mf) PRLR.mmh; monkey PRLR
T2 chain: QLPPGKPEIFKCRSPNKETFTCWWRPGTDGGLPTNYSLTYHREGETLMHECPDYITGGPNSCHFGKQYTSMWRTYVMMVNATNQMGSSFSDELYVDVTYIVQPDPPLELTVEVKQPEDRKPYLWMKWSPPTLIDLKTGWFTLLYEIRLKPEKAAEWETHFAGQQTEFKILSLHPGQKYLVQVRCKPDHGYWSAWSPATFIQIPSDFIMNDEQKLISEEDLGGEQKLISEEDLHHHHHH
Description: SPR (Biacore), antibody capture, 37 C. How it is done: as §1

Assay [3] addresses T3, hPRLR.mFc (soluble dimeric human PRLR) (human).
T3 construct: dimeric PRLR construct
T3 chain: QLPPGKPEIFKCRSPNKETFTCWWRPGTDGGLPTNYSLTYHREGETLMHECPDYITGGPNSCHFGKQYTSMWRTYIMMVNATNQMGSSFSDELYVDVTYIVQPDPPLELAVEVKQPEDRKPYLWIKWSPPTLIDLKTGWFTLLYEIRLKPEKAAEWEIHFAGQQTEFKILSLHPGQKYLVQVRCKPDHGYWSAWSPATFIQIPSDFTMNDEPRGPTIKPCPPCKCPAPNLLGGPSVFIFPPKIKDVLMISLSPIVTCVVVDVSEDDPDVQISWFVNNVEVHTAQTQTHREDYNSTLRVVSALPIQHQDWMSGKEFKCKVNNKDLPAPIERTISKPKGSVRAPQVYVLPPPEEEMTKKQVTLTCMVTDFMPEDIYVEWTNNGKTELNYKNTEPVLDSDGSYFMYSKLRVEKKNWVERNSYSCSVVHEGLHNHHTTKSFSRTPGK
Description: SPR (Biacore), antibody capture, 37 C. How it is done: as §1

In assay [4] the target is T4, human PRLR on cells (endogenous on T47D, T47D#11, MCF7); introduced in HEK293/hPRLR/STAT5-Luc, 293/hPRLR, … (human, UniProt P16471 25-622).
T4 sequence: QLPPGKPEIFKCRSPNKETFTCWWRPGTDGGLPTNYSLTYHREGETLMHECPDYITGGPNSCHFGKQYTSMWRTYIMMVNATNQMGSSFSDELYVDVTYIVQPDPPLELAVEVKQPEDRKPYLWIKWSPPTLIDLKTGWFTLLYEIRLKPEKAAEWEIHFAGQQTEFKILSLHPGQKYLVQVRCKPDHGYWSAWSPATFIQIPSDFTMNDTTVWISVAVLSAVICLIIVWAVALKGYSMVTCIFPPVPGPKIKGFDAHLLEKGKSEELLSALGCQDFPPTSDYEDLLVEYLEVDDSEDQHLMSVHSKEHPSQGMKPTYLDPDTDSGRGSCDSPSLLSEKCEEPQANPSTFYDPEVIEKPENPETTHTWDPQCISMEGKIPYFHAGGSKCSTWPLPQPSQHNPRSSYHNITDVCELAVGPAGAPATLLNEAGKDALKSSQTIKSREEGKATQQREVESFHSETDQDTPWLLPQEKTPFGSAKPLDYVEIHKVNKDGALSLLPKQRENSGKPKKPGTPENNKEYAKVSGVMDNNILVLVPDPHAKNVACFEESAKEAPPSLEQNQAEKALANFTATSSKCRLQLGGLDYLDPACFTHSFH
Description: cell-based or functional assay.

Assay [5] has as its target T5, mouse PRLR construct with an HA tag on HEK293/mPRLR cells (mouse, UniProt Q08501 20-608).
T5 construct: whole, on cells; stably transfected into HEK293
T5 sequence (looked up): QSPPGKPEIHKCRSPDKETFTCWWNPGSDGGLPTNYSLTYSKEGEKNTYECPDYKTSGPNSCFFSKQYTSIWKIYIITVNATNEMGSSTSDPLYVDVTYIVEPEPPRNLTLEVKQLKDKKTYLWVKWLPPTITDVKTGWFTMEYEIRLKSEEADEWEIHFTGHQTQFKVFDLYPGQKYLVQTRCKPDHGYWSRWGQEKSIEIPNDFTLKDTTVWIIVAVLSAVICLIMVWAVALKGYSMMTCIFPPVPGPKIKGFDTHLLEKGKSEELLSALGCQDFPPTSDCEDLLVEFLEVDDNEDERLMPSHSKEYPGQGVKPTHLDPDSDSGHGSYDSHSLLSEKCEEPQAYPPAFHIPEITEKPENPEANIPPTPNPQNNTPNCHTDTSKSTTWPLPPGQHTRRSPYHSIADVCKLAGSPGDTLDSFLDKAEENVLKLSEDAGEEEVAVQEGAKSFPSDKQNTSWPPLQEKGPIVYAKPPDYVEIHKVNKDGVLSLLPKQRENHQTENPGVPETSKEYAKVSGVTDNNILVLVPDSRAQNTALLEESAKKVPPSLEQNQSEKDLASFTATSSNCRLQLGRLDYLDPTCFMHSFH
Description: FACS on HEK293/mPRLR cells.

The target in assay [6] is T4, human PRLR on cells (endogenous on …). Description: cell-based or functional assay. This is another data set of the same source.
The target is the same in assay [7]. Description: FACS on T47D cells.

B1: H1H6976N (antibody, human IgG1, V domains shown)
VH: EVQLLESGGGFVQPGGSLRLSCAASGFTFSSYAMSWVRQAPGKGLEWVSIISSNGRYTYYADSVKGRFTISRDNSKNTLYLQMNSLRAEDTAVYYCATVTGDWFDPWGQGTLVTVSS
VL: DIQLTQSPSFLSASVGDRVTITCWASQDIDISLAWYQQKPGKAPKLLIYAASTLQSGVPSKFSGSGSGTDFTLTISSLQPEDFSTYYCQQLNSYPITFGQGTRLDIK
notes: also called H2M6976N
Regarding B1, in assay [1], the Kd was 4.04 nM, the “T 1/2” value is 3.7 min, the koff came to 0.00314 s⁻¹ and the kon turned out to be 777000 M⁻¹ s⁻¹. In addition, in assay [2], the Kd amounted to 5.24 nM, the “T 1/2” value stood at 3.7 min, the koff is 0.00316 s⁻¹ and the kon amounted to 603000 M⁻¹ s⁻¹. In assay [3], the Kd came out at 0.102 nM, the “T 1/2” value worked out at 82.6 min, the koff was determined as 0.00014 s⁻¹ and the on-rate (kon) was 1.37e+06 M⁻¹ s⁻¹. Moreover, the “% Internalization relative to Control I (T47D cells, imaging)” value (“% Internalization relative to Control I” for short) in assay [4] came out at 170%. The “FACS Cell Binding (Fold Above Background)” value in assay [5] stood at 1 fold. For the same molecule, in assay [6], the “Percent Blocking at 100 nM Antibody (STAT5-Luc reporter)” value (from here on “Percent Blocking at 100 nM Antibody”) was 23%. Moreover, the “FACS Cell Binding (Fold Above Background)” value in assay [7] was found to be 37 fold.

B2: H1H6958N2 (antibody, human IgG1, V domains shown)
VH: QVQLVESGGGVVQPGRSLRLSCGASGFTFRNYGMQWVRQGPGKGLEWVTLISFDGNDKYYADSVKGRFTISRDNSKNTLFLQMNSLRTEDTAVYYCARGGDFDYWGQGTLVTVSS
VL: DIQMTQSPSSLSASVGDRVTITCRASQDIRKDLGWYQQKPGKAPKRLIYAASSLHSGVPSRFSGSGSGTEFTLTISSLQPEDFATYYCLQHNSYPMYTFGQGTKLEIK
notes: also called H2M6958N2
B2: in assay [1], binding was put at a Kd of 3.16 nM, the “T 1/2” value worked out at 8.8 min, the koff is 0.00131 s⁻¹ and the kon was found to be 413000 M⁻¹ s⁻¹. In assay [2], the Kd worked out at 4.08 nM, the “T 1/2” value is 8.6 min, the koff worked out at 0.00134 s⁻¹ and the on-rate (kon) was found to be 328000 M⁻¹ s⁻¹. In addition, in assay [3], the Kd came to 0.167 nM, the “T 1/2” value came out at 83.3 min, the koff amounted to 0.000139 s⁻¹ and the kon amounted to 829000 M⁻¹ s⁻¹. In addition, the “% Internalization relative to Control I” value in assay [4] was determined as 169%. Besides, the “FACS Cell Binding (Fold Above Background)” value in assay [5] was 1 fold. Moreover, in assay [6], the “IC50 of Blocking 5 nM PRL [M] (STAT5-Luc reporter, HEK293/hPRLR/STAT5-Luc cells)” value amounted to 1.98e-10 M and the “Percent Blocking at 100 nM Antibody” value was determined as 100%. For the same molecule, in assay [7], the “FACS Cell Binding (Fold Above Background)” value was found to be 37 fold.

B3: H1H6967N (antibody, human IgG1, V domains shown)
VH: EVQLVESGGDLVHPGRSLRLSCAASGFPFDEYAMHWVRQVPGKGLEWVSGISWSNNNIGYADSVKGRFTISRDNAKNSLYLQMNSLRPEDTAFYYCAKSGIFDSWGQGTLVTVSS
VL: EIVMTQSPATLSVSPGERATLSCRASQSVSRDLAWYQQKPGQAPRLLIHGASTRATGIPARFSGSGSGAEFTLIISSLQSEDFAVYYCQQYNNWPLTFGGGTKVEIK
notes: also called H2M6967N
For B3, in assay [1], the dissociation constant (Kd) is 2.2 nM, the “T 1/2” value was 12.4 min, the koff was determined as 0.000933 s⁻¹ and the kon came to 424000 M⁻¹ s⁻¹. Moreover, in assay [2], the affinity, expressed as Kd, was 4.54 nM; the “T 1/2” value stood at 7.1 min; the koff came out at 0.00162 s⁻¹; the kon came to 356000 M⁻¹ s⁻¹. In assay [3], binding was characterised by a dissociation constant (Kd) of 0.107 nM, the “T 1/2” value worked out at 119 min, the koff is 9.73e-05 s⁻¹ and the kon was found to be 907000 M⁻¹ s⁻¹. Also, the “% Internalization relative to Control I” value in assay [4] was determined as 169%. In assay [5], the “FACS Cell Binding (Fold Above Background)” value came to 2 fold. Also, in assay [6], the “IC50 of Blocking 5 nM PRL [M] (STAT5-Luc reporter, HEK293/hPRLR/STAT5-Luc cells)” value was determined as 7.68e-10 M and the “Percent Blocking at 100 nM Antibody” value was determined as 100%. Further, the “FACS Cell Binding (Fold Above Background)” value in assay [7] was determined as 41 fold.

B4: H1H6782P (antibody, human IgG1, V domains shown)
VH: EVQLVESGGGLVQPGRSLRLSCAASGFTFDDYAMHWVRQAPGKGLEWVSGIIWNSGHIGYGDSVKGRFTISRDNAKKSLYLQMNSLRAEDTALYYCARDSGRYQSYFDYWGQGTLVTVSS
VL: DIQMTQSPSTLSASVGDRVTITCRASHIISSWLAWYQQKPGKAPKVLIFKASSLESGVPSRFSGSGSGTEFTLTISSLQPDDFATYYCQQYNTYSRTFGQGTKVEIK
notes: human IgG1 Fc (H1H)
Regarding B4, in assay [1], the Kd is 1.28 nM, the “T 1/2” value is 16 min, the koff was 0.000716 s⁻¹ and the kon was 557000 M⁻¹ s⁻¹. Moreover, in assay [2], binding was characterised by a dissociation constant (Kd) of 1.99 nM, the “T 1/2” value stood at 15 min, the koff was found to be 0.000767 s⁻¹ and the on-rate constant (kon) amounted to 385000 M⁻¹ s⁻¹. In addition, in assay [3], the Kd amounted to 0.217 nM, the “T 1/2” value came to 89 min, the koff is 0.00013 s⁻¹ and the kon turned out to be 598000 M⁻¹ s⁻¹. Also, in assay [4], the “% Internalization relative to Control I” value amounted to 179%. In addition, the “FACS Cell Binding (Fold Above Background)” value in assay [5] came out at 4 fold. Moreover, the “Percent Blocking at 100 nM Antibody” value in assay [6] worked out at 0%. Moreover, the “FACS Cell Binding (Fold Above Background)” value in assay [7] turned out to be 43 fold.

B5: H1H6785P (antibody, human IgG1, V domains shown)
VH: EVQLVESGGGLVQPGGSLRLSCAASGFTFSSYEMNWVRQAPGKGLEWISYISSRGGTIYYADSIKGRFTIYRDNARNSLYLQMNSLRAEDTAIYYCARLSGVDIFDIWGQGTMVTVSS
VL: DIQMTQSPSSLSASVGDRVTITCRASQGISNYLAWYQQKPGKVPKLLIYFASTLQSGVPSRFSGGGSGTDFTLTISSLQPEDVATYYCQRYNSAPLTFGGGTKVEIK
notes: human IgG1 Fc (H1H)
Consider B5, for which, in assay [1], the Kd was found to be 1.14 nM, the “T 1/2” value was determined as 24 min, the koff is 0.000484 s⁻¹ and the kon was found to be 426000 M⁻¹ s⁻¹. Moreover, in assay [2], the Kd is 1.52 nM, the “T 1/2” value stood at 26 min, the koff was 0.00045 s⁻¹ and the kon turned out to be 297000 M⁻¹ s⁻¹. Moreover, in assay [3], binding was put at a Kd of 0.256 nM, the “T 1/2” value was found to be 99 min, the koff worked out at 0.000117 s⁻¹ and the kon was determined as 456000 M⁻¹ s⁻¹. Besides, the “% Internalization relative to Control I” value in assay [4] was determined as 169%. The “FACS Cell Binding (Fold Above Background)” value in assay [5] is 2 fold. In assay [6], the “IC50 of Blocking 5 nM PRL [M] (STAT5-Luc reporter, HEK293/hPRLR/STAT5-Luc cells)” value is 3.45e-10 M and the “Percent Blocking at 100 nM Antibody” value was 100%. The “FACS Cell Binding (Fold Above Background)” value in assay [7] came to 40 fold.

One may read the Kd as the equilibrium constant for the complex coming apart. What is called koff is the first-order rate constant of dissociation. Low values mean a long-lived complex, high ones a short-lived complex. For orientation: kon means the second-order rate constant of association.
